The assay has as its target FGFR on smooth muscle cells (SMC) isolated from bovine aorta (bovine). As to the kind of experiment: cell-based or functional assay.

In turn, “Recombinant human wild-type FGF2 (ligand)” returned a molar concentration required to achieve half maximal proliferation of SMC ([3H] thymidine incorporation, no chlorate) of 270 pM.
“dFGF2, tandemly-linked dimeric FGF2, as purified with N-terminal His tag and C-terminal T7 tag (ligand)” displayed a fold activity in promoting SMC proliferation compared to wild-type FGF2 of 4.5 fold; a molar concentration required to achieve half maximal proliferation of SMC ([3H] thymidine incorporation, no chlorate) of 60 pM; a proliferation of chlorate-treated (HLGAG-depleted) SMC, percent of full proliferation of 80%.

These data come from patent publication US20030008820A1.
